Reference: article PMC3962895

Molecular target: dEV8 (8-mer self-peptide) peptide on H-2Kb (mouse)
Assay: data from

## 2C TCR
  Kd: 84.1 µM
